Measured values as given in the supplement of paper PMC9170038.

Experiments:
[1] = system: MS2 coat protein; experiment: apparent KD of MS2 coat protein; designed switch direction (-1 OFF switch, 1 ON switch): 1; higher = weaker reporter binding; conditions: Eterna round: R98
Description: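 RNA-MaP: designed FMN/MS2 RNA switches (84 nt design region) are transcribed on-chip within common flanks and titrated with SNAP-549-labelled MS2 coat protein (about 1-3000 nM) in 100 mM Tris pH 7.5, 80 mM KCl, 4 mM MgCl2, without or with 200 uM FMN. Median apparent KD per design; activation ratio = KD,OFF / KD,ON.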

[2] = system: MS2 coat protein; experiment: apparent KD of MS2 coat protein, switch ON state; designed switch direction (-1 OFF switch, 1 ON switch): 1; higher = weaker reporter binding; conditions: FMN input: 0 or 200 uM; Eterna round: R93 (includes R88 designs)
Outline: (§1)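 Apparent KD stands for the median, per design, of fits to normalised cluster binding curves. The curves came from titrating on-chip-transcribed RNA switches on Illumina sequencing clusters with SNAP-549-labelled MS2 coat protein, twofold from 0.7 or 1.5 nM to 3 µM. Buffer was 100 mM Tris-HCl pH 7.5, 80 mM KCl, 4 mM MgCl2, without or with constant ligand.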

[3] = system: MS2 coat protein; experiment: apparent KD of MS2 coat protein, switch OFF state (with FMN for OFF switches, without FMN for ON switches); designed switch direction (-1 OFF switch, 1 ON switch): 1; higher = weaker reporter binding; conditions: FMN input: 0 or 200 uM; Eterna round: R93 (includes R88 designs)
Outline: as §1

Sequence	apparent KD of MS2 coat protein ([1]; input ligand: FMN 200 uM) [nM]	apparent KD of MS2 coat protein ([1]; input ligand: none) [nM]	apparent KD of MS2 coat protein [2] [nM]	apparent KD of MS2 coat protein [3] [nM]
AAAACAUACCGAGGAUAUUCAUAUAAUAAAUAAACAUGAGGAUCACCCAUUUGGCAAAAGCCUAGGGAGAAGGCGGAAUGCUAA [salish99_SSNG2_r2_119]	658			
AAAACAUGAGGAUCACCCAUGUAAGAAUAAUUAAUUAUAAGUGAGGAUAUAUAAAUUAUAAAAUUGUAGAAGGCACUGGGUAUC [JR_SSNG3_Sub083]	83.6	71		
ACUAGAAACGGGCAAUAACACAUGAGGAUCACCCAUGUGACACAGGAUAUAACCAGAUCAGAAAGUUAGAAGGGUGAGCCCGCA [Edraed Mod 1 - Jieux - Same State NG3]	23.8	23.7		
AUAAUAACUUGAGGAUAUGCUCAGGAAUACUGAGCAGAAGGCAGGGAAACCUGAGGAUCACCCAGGUAAAUAAUAAUAAUAAUA [Same State NG1 - A3C, U17G Submission 1B]	19.3	24.5		
AUAAUAACUUGAGGAUAUGCUCAGGAAUACUGAGCAGAAGGCAGGGAAACCUGAGGAUCACCCAGGUAACUGGAAUAAUAAUAA [Same State NG1 - A3C, U17G Submission 4A]	25.6	25.8		
AUAAUAACUUGAGGAUAUGCUCAGGAAUACUGAGCAGAAGGCAGGGAAACCUGAGGAUCACCCAGGUGAAUAAUAAUAAUAAUA [Same State NG1 - A3C, U17G Submission 1A]	18.3	23.4		
CAUGUCCUCACAGGAUAUGCUGGACUUUGUCCAGCAGAAGGGUGAUAACAUGAGGAUCACCCAUGUGGACAUGAUAUAUUUAAG [Mat - Same State NG 1 - Eli mod - D95]	623	106		
CCGGAAACGGGUAGCUGACAUGAGGAUCACCCAUGUGAUACACAGGAUAUGGAUCCUAAUUGGAUCCAGAAGGGUGUCAGCUAC [Mat - Same State NG 3 - JL Mod - D84]	130	1270		
CGAGACACUUGAGGAUAUGCUCAGGAAUACUGAGCAGAAGGCAGGAAAACCUGAGGAUCACCCAGGUAACUGGAAAGUCUCGAA [Same State NG1 - A3C, U17G Submission 5E-G46A]	16.9	19.6		
CUAAUAUAGUGAGGAUAUGCACAGGAUCACCGUGUAGAAGGCAUCAGGUAGAAGGUGCAGAGGAUCACCCUGUAAGGAUAUACC [pwkr2 ssNG1 DX.4]	32.4	69.4		
CUGCAAAUCUUAGGAUAUGCUCAGGAAUACUGAGCAGAAGGAAGAUAUACCUGAGGAUCACCCAGGUAAAACUGGAGCAGAAUA [Same State NG1 - A3C, U17G Submission 8G U68A, U7A]	24.3	26.6		
GAAAAACAUGAGGAUCACCCAUGUAGAAAUAUGGGAGGAUAUACAAAGACGAAAGUCAAAGUAGAAGGCCCAUAAG [Starry Same State 1.6 (mat747 round 1 mod)]			13.7	16.2
GAAAAACAUGAGGAUCACCCAUGUAGAAAUAUGGGAGGAUAUACUAUGACGAAAGUCAAAGUAGAAGGUCUAAAAG [JL S1 M-MoE mod 6 In the Read]			166	125
GAAAAACAUGAGGAUCACCCAUGUAGAGAUAUGGGAGGAUAUACAAAGACGAAAGUCGAGGUAGAAGGCCUAAAAG [Garnet 55]			24.4	116
GAAAAACAUGAGGAUCACCCAUGUCGAGAGAGACGAGGAUAUCUGAAUCGAUUAGAUUACGGAGAAGGCGUGAAAG [Mat - Same State 1 - Hyphema mod - D96]			20.3	25.8
GAAAAACAUGAGGAUCACCCAUGUGAAAACUUGGGAGGAUAUACAAAGACGAAAGUCGAAGUAGAAGGCCUAAAAG [Same State 1.4k (Mat - Mod of Eli - )]			17.2	106
GAAAAACAUGAGGAUCACCCAUGUGAUAACAUGGGAGGAUAUACAUGGACGAUAGUCAAAGUAGAAGGCCUAAAAG [Garnet 62]			104	32.1
GAAAAACAUGAGGAUCACCCAUGUGGAAAUAUGGGAGGAUAUACUAAGACGAAAGUCGAUGUAGAAGGCCUAAAAG [Same State 1.4e (Mat - Mod of Eli - )]			22	82.9
GAAAUACAUGAGGAUCACCCAUGUUAGGUGGGUCAAGGAUAUUAAGGUAAAUAAAAACCUUGAGAAGGUGAAUAAA [JR_SS001_Sub203]			157	239
GAAGACAUAGUUCAGGAUAUAUGAAUAGUCACAUGAGGAUCACCCAUGUGCAUUUAUAUGCGCACAUAGAAGGGAGGUAGUUAUC [SameState2 Malc#24]			33.6	23.5

Sequence	apparent KD of MS2 coat protein ([1]; input ligand: FMN 200 uM) [nM]	apparent KD of MS2 coat protein ([1]; input ligand: none) [nM]	apparent KD of MS2 coat protein [2] [nM]	apparent KD of MS2 coat protein [3] [nM]
GACCGUCCCACAGGAUAUAGAAGGGCGUCCGUUCUAGAAGGGUGAUCAGGACCAAAAGGUCACAUGAGGAUCACCCAUGUAGGU [Usorti]	43.7	36.6		
GAGAAACAUGAGGAUCACCCAUGUAGAAAUAUGGGAGGAUAUACAGAGACGAGAGUCAAAGUAGAAGGCCUAGAAG [77%, Mat - Mod of Eli - With 4 more G's]			32.1	66.1
GAGAGACAUGAGGAUCACCCAUGUAGGAUUAUGGGAGGAUAUACAAAGACGAGAGUCAGAGUAGAAGGCCUAGGAU [salish99-ss1-138(!)]			21.2	54.9
GAGGACGUAGGAUAGGAUAUAUGAAUAAUUACAUGAGGAUCACCCAUGUCCAUUUAUAUGGGAACAUAGAAGGGUUGUGGUUAUC [SameState2 Malc#35]			446	491
GAUAGACAUGAGGAUCACCCAUGUAGAAUUAUGGGAGGAUAUACAAAGACGAGAGUCAGAGUAGAAGGCCUAGGAC [salish99-ss1-159]			23.6	58.6
GAUCCGACUAGUCAGGAUAUCAGGCGUAAGACAUGAGGAUCACCCAUGUCCUAAGAACAAGUAACUGAGAAGGGACAGGGCGACC [JR_SS002_Sub413]			62.3	62.4
GCCAUCGCAUGAGGAUAUGGCACCGUUUCGGUGCCAGAAGGCAUGUCAUAAGACAUGAGGAUCACCCAUGUAAAUAAGAUGGCA [JanderMod 3 - Jieux - Same State NG 1]	47.9	715		
GCUGCUAUCGCAGGAUAUUACAUGGGAAAUAAAACAUGAGGAUCACCCAUGUUAAAUAUCGUAAAUAAGAAGGGCGAUAGCAGC [Lame State 2 - Jieux - Same State NG 2]	178	1120		
GCUGUCGCAUGAGGAUAUGGUCUGCUUUGCAGACCAGAAGGCAUGUCGAUAGACAUGAGGAUCACCCAUGUAGUAAAGACAGCA [Mat - Same State NG 1 - JL Mod - D49]	57.1	306		
GGAAAUAACAGAGAGGAUAUCCAAAGGAAAACAUGAGGAUCACCCAUGUAAAAGGAAGGAAAUUGGGAGAAGGCUCAAAAUAAAU [salish99-ss2-015]			20.4	29.1
GGAACUACAGAUCAGGAUAUGUUUGGGUAAACAUGAGGAUCACCCAUGUGCACCCGAUACACAGGACAGAAGGGAUAACGUGGGA [Maondior]			15.5	20.2
GGGAGGAAGAGAGAGGAUAUCCAAAGGAAAACAUGAGGAUCACCCAUGUAAAAGGUAGGAAAUUGGGAGAAGGCUCAAGAGACCG [salish99-ss2-057]			34.2	37.9
GUAUAUAUAAGACAGGAUAUCCGAAAGUAAACAUGAGGAUCACCCAUGUAAAGAAAGAAACUCAUGGAGAAGGGUCAAUAUAUAC [Mat - Same State 2 - Tesla mod - D83]			22.2	66.7
UAAAAACAUGAGGAUCACCCAUGUAAGAUAAACACAGGAUAUGCGAAAAGAAAGAAAGAAGCAGAAGGGUGAAAAU [Mat - Same State 1 - Tesla mod - 43]			15.9	41.6
UAAAUACAUGAGGAUCACCCAUGUCAAGAGUAUUAAGGAUAUGAACCAGGGAACUGGCAGUCAGAAGGUGAGACUC [Ququeddi]			235	65.2
UAACUACAUGAGGAUCACCCAUGUCUCCAGGGUCAAGGAUAUGGGCGUAGACAAACUACACCAGAAGGUGAUCCAA [Rireenon]			156	307
UACACGCGGGCGCAGGAUAUGUCGCUGGUGACAUGAGGAUCACCCAUGUAUACCAUUGCGGUUGAGCAGAAGGGUGAGACGCGUG [Matimare]			15.1	57.5
UAUUAUUACACGAAGGAUAUCGAUAAUAGUACAUGAGGAUCACCCAUGUUCAUAUCAUUUUAGUUCGAGAAGGUCGAGGGUGAAG [JR_SS002_Sub709]			23.9	20.1
UUAAGCCACGGGCAGGAUAUGUAUUAAAAUACAUGAGGAUCACCCAUGUGCAGGUGUAACACCUGACAGAAGGGCCAAUCGCGGC [Soondi]			21.5	241
